The assay deals with Rhodamine green-Gly-Gly-dPhe-Leu-Arg-Arg-Val-Cys(QSY 7)-betaAla-NH2.

For the substance “recombinant human neutral endopeptidase (NEP) (from UniProt P08473) (enzyme)”, the Km (steady state kinetics, FRET cleavage assay) worked out at 8 µM.

These data come from US20020177689A1.
